The text below walks through data of doi:10.1101/2022.04.03.486873 (bioRxiv, 2022).

T1: UPF2L (120-1227) (UniProt Q9HAU5 120-1227)
T1 sequence: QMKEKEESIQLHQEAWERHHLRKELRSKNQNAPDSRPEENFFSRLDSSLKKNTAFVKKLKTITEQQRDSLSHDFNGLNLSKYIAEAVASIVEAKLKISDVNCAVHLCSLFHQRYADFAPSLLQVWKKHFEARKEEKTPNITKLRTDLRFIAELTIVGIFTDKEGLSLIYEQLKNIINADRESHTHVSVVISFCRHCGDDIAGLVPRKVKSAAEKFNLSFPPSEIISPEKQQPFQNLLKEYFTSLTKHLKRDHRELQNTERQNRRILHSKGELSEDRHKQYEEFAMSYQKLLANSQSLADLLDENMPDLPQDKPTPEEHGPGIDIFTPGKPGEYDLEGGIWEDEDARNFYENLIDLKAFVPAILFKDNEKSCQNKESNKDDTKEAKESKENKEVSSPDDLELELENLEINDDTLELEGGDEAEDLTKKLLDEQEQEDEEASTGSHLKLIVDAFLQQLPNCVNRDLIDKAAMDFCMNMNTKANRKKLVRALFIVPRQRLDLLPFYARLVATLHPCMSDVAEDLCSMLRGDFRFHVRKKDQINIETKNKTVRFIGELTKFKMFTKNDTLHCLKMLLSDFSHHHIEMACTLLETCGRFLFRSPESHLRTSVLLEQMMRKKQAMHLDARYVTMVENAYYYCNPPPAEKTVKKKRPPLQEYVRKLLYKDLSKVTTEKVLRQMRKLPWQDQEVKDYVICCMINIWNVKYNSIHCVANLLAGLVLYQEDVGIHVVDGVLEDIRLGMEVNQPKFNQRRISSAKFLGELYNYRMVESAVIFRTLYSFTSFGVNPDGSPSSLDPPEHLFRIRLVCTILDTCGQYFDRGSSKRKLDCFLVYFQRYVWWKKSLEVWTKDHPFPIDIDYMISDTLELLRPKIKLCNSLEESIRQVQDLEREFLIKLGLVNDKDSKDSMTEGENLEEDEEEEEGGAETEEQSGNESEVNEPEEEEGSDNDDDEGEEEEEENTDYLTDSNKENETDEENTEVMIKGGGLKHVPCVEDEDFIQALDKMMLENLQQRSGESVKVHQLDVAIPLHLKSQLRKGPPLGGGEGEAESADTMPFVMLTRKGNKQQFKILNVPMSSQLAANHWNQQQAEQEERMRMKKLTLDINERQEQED

B1: Avi-UPF2-MIF4GIII (biotinylated) (domain or fragment)
chain: EKTVKKKRPPLQEYVRKLLYKDLSKVTTEKVLRQMRKLPWQDQEVKDYVICCMINIWNVKYNSIHCVANLLAGLVLYQEDVGIHVVDGVLEDIRLGMEVNQPKFNQRRISSAKFLGELYNYRMVESAVIFRTLYSFTSFGVNPDGSPSSLDPPEHLFRIRLVCTILDTCGQYFDRGSSKRKLDCFLVYFQRYVWWKKSLEVWTKDHPFPIDIDYMISDTLELLRPKIKLCNSLEESIRQVQDLEREFLIKLGLVNDKDSKDSMTEGENLEEDEEEEEGGAETEEQSGNESEVNE
modifications: biotin on the Avi tag (BirA)
B2: UPF3A-58-206-Iso1 (domain or fragment)
chain: KPREEKRTALSKVVIRRLPPGLTKEQLEEQLRPLPAHDYFEFFAADLSLYPHLYSRAYINFRNPDDILLFRDRFDGYIFLDSKGLEYPAVVEFAPFQKIAKKKLRKKDAKTGSIEDDPEYKKFLETYCVEEEKTSANPETLLGEMEAKT
B3: UPF3B-41-143 (domain or fragment)
chain: DRNKEKKEALSKVVIRRLPPTLTKEQLQEHLQPMPEHDYFEFFSNDTSLYPHMYARAYINFKNQEDIILFRDRFDGYVFLDNKGQEYPAIVEFAPFQKAAKKK
B4: UPF3B-41-189 (domain or fragment)
chain: DRNKEKKEALSKVVIRRLPPTLTKEQLQEHLQPMPEHDYFEFFSNDTSLYPHMYARAYINFKNQEDIILFRDRFDGYVFLDNKGQEYPAIVEFAPFQKAAKKKTKKRDTKVGTIDDDPEYRKFLESYATDNEKMTSTPETLLEEIEAKN
B5: UPF3B-41-189 Y160A+Y167A (domain or fragment)
chain: B4 chain with Y120A, Y127A
B6: UPF3B-41-189 Y160D+Y167D (domain or fragment)
chain: B4 chain with Y120D, Y127D
B7: UPF3B-41-189 F163A (domain or fragment)
chain: B4 chain with F123A
B8: UPF3B-41-189 Y167A (domain or fragment)
chain: B4 chain with Y127A
B9: UPF3B-41-189 Y160D (domain or fragment)
chain: B4 chain with Y120D
B10: UPF3B-41-189 Y167D (domain or fragment)
chain: B4 chain with Y127D
B11: UPF3B-41-189 Y160A (domain or fragment)
chain: B4 chain with Y120A
B12: UPF3B-FL (residues 1-470) (natural protein)
chain: MKEEKEHRPKEKRVTLLTPAGATGSGGGTSGDSSKGEDKQDRNKEKKEALSKVVIRRLPPTLTKEQLQEHLQPMPEHDYFEFFSNDTSLYPHMYARAYINFKNQEDIILFRDRFDGYVFLDNKGQEYPAIVEFAPFQKAAKKKTKKRDTKVGTIDDDPEYRKFLESYATDNEKMTSTPETLLEEIEAKNRELIAKKTTPLLSFLKNKQRMREEKREERRRREIERKRQREEERRKWKEEEKRKRKDIEKLKKIDRIPERDKLKDEPKIKLLKKPEKGDEKELDKREKAKKLDKENLSDERASGQSCTLPKRSDSELKDEKPKRPEDESGRDYREREREYERDQERILRERERLKRQEEERRRQKERYEKEKTFKRKEEEMKKEKDTLRDKGKKAESTESIGSSEKTEKKEEVVKRDRIRNKDRPAMQLYQPGARSRNRLCPPDDSTKSGDSAAERKQESGISHRKEGGEE

Changes are numbered by the printed parent chain. Names may count otherwise.

For the first test, the target named is Avi-UPF2-MIF4GIII (biotinylated) (UniProt Q9HAU5). Briefly: SPR. In general terms: In SPR one partner is held on a chip, and binding of the other changes the refractive index at the surface.
Turning to “full-length UPF3A-WT (from UniProt Q9H1J1 1-476) (natural protein)”, the equilibrium dissociation constant (Kd) was 0.048 nM.

A further test has as its target B12. Briefly: SPR.
For B1, the Kd is 0.47 nM.

A further test has as its target B1. Briefly: SPR.
On to B2, for which binding was characterised by a dissociation constant (Kd) of 0.22 nM.
Still for that read-out and setting: then B3, with 720 nM; and B4, with 3.6 nM; and B5, with about 130 nM.
On the same count and under the same terms, the same measure for B6: about 130 nM; for B7: 90 nM.
The molecule B8 came in with a Kd of 3.3 nM. This Kd lies about 27-fold lower than the previous one.
On the same count and under the same terms, the same measure for B9: 140 nM.
B10: binding was put at a Kd of 7.4 nM. Against the preceding molecule, the Kd is about 19-fold lower.
Same read-out and setting: the same measure for B11: 88 nM.

In the next test the target is T1, UPF2L (120-1227). Put plainly: native gel or EMSA. On the technique in general: Mobility shift assays separate free from complexed probe on a gel.
In the case of B12, the binding result was “binds”.

By Kd is commonly meant the equilibrium constant for the complex coming apart. A lower Kd goes with a tighter complex.
